Results as given in the DeepSol protein solubility set.

test: soluble on expression in E. coli; label from the status in PepcDB or PDB records

Sequence | soluble on expression in E. coli
MGSSHHHHHHSSGLVPRGSHMEEEMMILGVDGGSTKTLAIVFDERSERIMGVGISGPSNFTNAPRETAESNISDAVRKACSEAGTDLDGIGIRVFGLAGIGDSREATELGKDIVRSIVGHADVYSDGLGAYKFANLNDDGVVFAPGTGSVGFIKNGSDPERFGGWGWFIGDEASASWMAKQAILFAEREHDGIAETGFLDVVRRYFGMDLYETVYAISKEKIAKRVVAALAPQVSAMARSGNRYAISIFEESSSYIADLLNAKSRIFGRSGKYSVLGGTMLAGDFYRDMIRKKSSVDVSIYYGYQVAIGDVLIGIEKKGSISVDLRNKMIDQLNSILENKKEDIKKFLFLDSVPTS | soluble
MGSSHHHHHHSSGLVPRGSHMLLREVTREERKNFYTNEWKVKDIPDFIVKTLELREFGFDHSGEGPSDRKNQYTDIRDLEDYIRATAPYAVYSSVALYEKPQEMEGWLGTELVFDIDAKDLPLRRCEHEPGTVCPICLNDAKEIVRDTVIILREELGFNDIHIIYSGRGYHIRVLDEWALKLDSKSRERILSFVSASEIEDVEEFRKLLLNKRGWFVLNHGYPRAFRLRFGYFILRIKLPHLINAGIRKSIAKSILKSKEEIYEEFVRKAILAAFPQGVGIESLAKLFALSTRFSKSYFDGRVTVDLKRILRLPSTLHSKVGLIAKYVGTNERDVMRFNPFKHAVPKFRKEEVKVEYKKFLESLGT | soluble
MGSSHHHHHHSSGLVPRGSHMSLDMKEHPDAEVQKNQVLTLEDWKEKWVTRHISFHQEQGHQLLKKHLDTFLKGQSGLRVFFPLCGKAIEMKWFADRGHTVVGVEISEIGIREFFAEQNLSYTEEPLAEIAGAKVFKSSSGSISLYCCSIFDLPRANIGKFDRIWDRGALVAINPGDHDRYADIILSLLRKEFQYLVAVLSYDPTKHAGPPFYVPSAELKRLFGTKCSMQCLEEVDALEERHKAWGLDYLFEKLYLLTEK | soluble
MGSSHHHHHHSSGLVPRGSKITVNPESKAVLAGQFVKLCCRATGHPFVQYQWFKMNKEIPNGNTSELIFNAVHVKDAGFYVCRVNNNFTFEFSQWSQLDVCDIPESFQRSVDGVSESKLQICVEPTSQKLMPGSTLVLQCVAVGSPIPHYQWFKNELPLTHETKKLYMVPYVDLEHQGTYWCHVYNDRDSQDSKKVEIIIDELNNLGHPDNKEQTTDQ | soluble
MGSSHHHHHHSSGLVPRGSSRRKSNCVKEVEKLQEKREKRRLQQQELREKRAQDVDATNPNYEIMCMIRDFRGSLDYRPLTTADPIDEHRICVCVRKRPLNKKETQMKDLDVITIPSKDVVMVHEPKQKVDLTRYLENQTFRFDYAFDDSAPNEMVYRFTARPLVETIFERGMATCFAYGQTGSGKTHTMGGDFSGKNQDCSKGIYALAARDVFLMLKKPNYKKLELQVYATFFEIYSGKVFDLLNRKTKLRVLEDGKQQVQVVGLQEREVKCVEDVLKLIDIGNSCRTSGQTSANAHSSRSHAVFQIILRRKGKLHGKFSLIDLAGNERGADTSSADRQTRLEGAEINKSLLALKECIRALGRNKPHTPFRASKLTQVLRDSFIGENSRTCMIATISPGMASCENTLNTLRYANRVKEL | soluble
MGSSHHHHHHSSGLVPRGSVGGCLAKDGLQQSKCPDTTPKRRRASSLSRDAERRAYQWCREYLGGAWRRVQPEELRVYPVSGGLSNLLFRCSLPDHLPSVGEEPREVLLRLYGAILQGVDSLVLESVMFAILAERSLGPQLYGVFPEGRLEQYIPSRPLKTQELREPVLSAAIATKMAQFHGMEMPFTKEPHWLFGTMERYLKQIQDLPPTGLPEMNLLEMYSLKDEMGNLRKLLESTPSPVVFCHNDIQEGNILLLSEPENADSLMLVDFEYSSYNYRGFDIGNHFCEWVYDYTHEEWPFYKARPTDYPTQEQQLHFIRHYLAEAKKGETLSQEEQRKLEEDLLVEVSRYALASHFFWGLWSILQASMSTIEFGYLDYAQSRFQFYFQQKGQLTSVHSSS | soluble
MGSSHHHHHHSSGRENLYFQGHMHANIRYSFGGDEHLFAEVAEAMSLEAFFRGMAITRAIEALQLPGVLDVCLANASFQVRFDPDRLAPQALLETVRGLEAEAVAARSIETRIVEVPVLYNDPWTHETLMRFRDRHQDPDSTDLEYAARINGYADVQAFIQAHSGTPWFVSMVGFVAGLPFMYQMVERERQLQVPKYLRPRIDTPKLTLGHGGCFGCIYSVRGAGGYQMFGVTPAPIFDPRQGLPYLEESMVFFRAGDIVQFRPIERTEYEHMAAEVESGTFDLRIRPVSFDLDAFLADPRGCTQHLQEVLHVD | soluble
MGSSHHHHHHSSGRENLYFQGHMKNLLDLSYEELVTEITNLGLERYRADQILDWVFDKKVNNFDEMTNLSKKHRALLKEHFSISFLKLLDKKVSRIDGTTKFLWELEDGNTIESVMLFHPDRITACISTQVGCPVKCIFCATGMSGFVRNLTTGEIVAQILSMEKEEKKKIGNVVYMGMGEPLLNYENTIKSIRILNHKKMGNIGIRRITISTVGIPDRIIQLAEEGLDVKLALSLHAPTNFKRDQLVPLNKKYSIEEILNAVKIYQRKTGNRVTIEYVLIRGINDEISDAKKLAEILRNMKVFVNLIPVNPTVEGLRRPSRERLLTFKRILLENGIEAEIRREKGTDIEAACGQLRLKRIKSRS | soluble
MGSSHHHHHHSSGRENLYFQGHMLLHIPAIFTAEEVSRIRAALEQAEWADGKATAGYQSAKAKHNLQLPQDHPLAREIGEAMLQRLWNHPLFMSAALPLKVFPPLFNCYTGGGSFDFHIDNAVRDVHGGRERVRTDLSSTLFFSDPEDYDGGELVIQDTYGLQQVKLPAGDLVLYPGTSLHKVNPVTRGARYASFFWTQSLVREDSQRTLLFEMDQSIQRLTRDVPDHPSLIRLTGTYHNLLRRWSEL | soluble
MGSSHHHHHHSSGRENLYFQGHMVIIDNKHYLFIQKLGEGGFSYVDLVEGLHDGHFYALKRILCHEQQDREEAQREADMHRLFNHPNILRLVAYCLRERGAKHEAWLLLPFFKRGTLWNEIERLKDKGNFLTEDQILWLLLGICRGLEAIHAKGYAHRDLKPTNILLGDEGQPVLMDLGSMNQACIHVEGSRQALTLQDWAAQRCTISYRAPELFSVQSHCVIDERTDVWSLGCVLYAMMFGEGPYDMVFQKGDSVALAVQNQLSIPQSPRHSSALWQLLNSMMTVDPHQRPHIPLLLSQLEALQPPAPGQHTTQIL | soluble
MGSSHHHHHHSSGRENLYFQGVLGAGCIGGSIALKLKEKHHVTAFDRDEETMKALEENGIETVSKESDLYDTDLLVLALPMSVEERFLKETDFSGKILDVASVKTPFMEIARERGLNFTGGHPMAGNERKGKSGWDREMFDGKIFFLCSLDGKEDGMIENIVKDLGARPLWIDYRIHDEIVAAVSHVQYLISLSARYVGKPFEEYAGPGYLSNTRLSKQNMEMALDMIRYNKENILKYLENARNFLNVLYHLTEKEDFENLKKVIREVI | soluble
MGSSPAPFADIGKKAKDLLNKDYIFDHKFTLTMLSATGTEFVATGLKKDDFFFGDISTLYKGQNTIVDLKIDSHSSVSTKVTLKNLLPSAKAVISFKIPDHKSGKLDVQYVHPHATLNSSIGLNPTPLLDLSATIGSQNVCLGGEVSFDTASSSLTKYNAGIGFNNQGVSAALILEDKGESLRATYVHTVNPTTSFGAELIRRFSNYNNSFTVGSSHSVDQFTVVKTRFSNSGKAGMVVQREWRPKSHITFSAEYDSKAVTSSPKLGLALALKP | soluble
MGTALAAPPLGGCAEGFEVHGGDEEGLPLPTQIDLYLVGLAPLPHHGSRQPVEPPVGHAPVWEGGVYDYSHLIAHPVLPKVGAEPGYAALLPHRLPQQPPSPVPIASRCLDQPTLPPVFCSAQLNLALAGCGWSFMLHPHHVELYTHSLPAEDLSEAWPGSPAITADQLLDVETPFRLQYALHQRRPLQGAAV | soluble
MGTGGITSNAHVVSPTWHHKHVPPMDDDSVLQRDIGELLSRWGGLQMAVKNQWGGHDSLKKSQELAHNLFHLISQSNGSIFFLLL | not soluble
